± gives the standard deviation.
Assay: protein stability index of a GFP-peptide fusion (GPS, HEK-293T) (PSI 1-6); higher = more stable
[1] = treatment: DMSO, c terminus: a fixed tail appended
[2] = treatment: MLN4924 1 uM, 8 h, c terminus: a fixed tail appended
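Note: 24-mer peptide tiles fused after GFP, lentivirally expressed, FACS-sorted into six equal bins by GFP/DsRed ratio, decoded by Illumina sequencing, PSI is the read-weighted mean bin number.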

Row | Sequence | protein stability index [1] | protein stability index [2] | protein stability index (treatment: DMSO, c terminus: native) | protein stability index (treatment: MLN4924 1 uM, 8 h, c terminus: native)
1 | VGEPEFHYIAGAHGNEVLGRELLL [CPXM2] | 2.88 ± 0.62 | 3.25 ± 0.2 | – | –
2 | QEQEIDGKSLLLMTRNDVLTGLQL [SAMD13] | 3.23 ± 0.23 | 3.36 ± 0.24 | – | –
3 | ESIVPIPSSNEEIRLVDDAFGKIC [INTS4] | 4.05 ± 0.35 | 4.29 ± 0.32 | – | –
4 | VEAVAYAPKKELINIKGISEAKAD [RAD51] | 4.49 ± 0.22 | 4.52 ± 0.41 | – | –
5 | AYRCGSGMQMAEDSKSLKTHQTQP [NET1] | 3.94 ± 0.16 | 3.22 ± 0.25 | – | –
6 | DVVEYLVDRCGASVEAGGSVHFDG [FEM1A] | 2.48 ± 0.32 | 2.46 ± 0.6 | – | –
7 | WWNHMHFQHHAKPNCFRKDPDINM [FADS1] | 2.17 ± 0.42 | 2.26 ± 0.49 | – | –
8 | NNEIPDCYTFSVLITFDNKAHSGR [MCOLN1] | 2.34 ± 0.31 | 2.42 ± 0.53 | – | –
9 | DGSKSLGEENFEVVKQFVTGIIDS [MATN2] | 4.38 ± 0.13 | 4.33 ± 0.27 | – | –
10 | GEKMVAAKVKGEKLDKKLKKMEQN [ATF4] | 5 ± 0.27 | 4.76 ± 0.18 | – | –
11 | DTILKYLKDHFSHLLGIPHSVLQI [IQUB] | 2.61 ± 0.43 | 2.63 ± 0.67 | – | –
12 | QSYPLCIYLINQKWFGRKRTLSAF [SLC22A15] | 2.46 ± 0.47 | 2.2 ± 0.61 | – | –
13 | LCLGGLACLIVMFLPEKKDTGVFA [SLC22A15] | 3.44 ± 0.26 | 3.08 ± 0.67 | – | –
14 | PLLPLDMQGNQILVFPSSSSSSSS [ZBTB22] | 3.93 ± 0.24 | 4.1 ± 0.18 | – | –
15 | SSGRELGRPKELQPKKLHLCPLCG [ZNF263] | 3.53 ± 0.2 | 3.99 ± 0.58 | – | –
16 | ARKARKYEIPHFRLKKVENIKIWL [PHTF1] | 2.09 ± 0.83 | 1.96 ± 0.46 | – | –
17 | WMIEEKATITSRGSSLSGSLCSLL [LURAP1L] | 2.28 ± 0.17 | 2.47 ± 0.2 | – | –
18 | GFIRFDKRIEAEEAIKGLNGQKPL [ELAVL3] | 3.66 ± 0.42 | 4.08 ± 0.49 | – | –
19 | VLAARSPVFNAMFEHEMEESKKNR [SPOPL] | 3.73 ± 0.2 | 4.27 ± 0.29 | – | –
20 | ALCENFPEEMATYLRYVRRLDFFE [CSNK1G1] | 2.21 ± 0.73 | 2.26 ± 0.26 | – | –
21 | AKLVDLPCVIESLRTLDKKTFYKT [TAF7L] | 2.52 ± 0.47 | 2.18 ± 0.42 | – | –
22 | PDNCEMFLNFNGMKLFLDCLKEFP [ZER1] | 2.25 ± 0.18 | 2.19 ± 0.33 | – | –

Row | Sequence | protein stability index [1] | protein stability index [2] | protein stability index (treatment: DMSO, c terminus: native) | protein stability index (treatment: MLN4924 1 uM, 8 h, c terminus: native)
23 | DVVNYFRTVGFEEQASAFQEQEID [SAMD13] | 3.44 ± 0.28 | 3.88 ± 0.44 | – | –
24 | MSTIGSFEGFQAVSLKQEGDDQPS [TPRG1] | 5.22 ± 0.082 | 5.22 ± 0.078 | – | –
25 | RNLSYTCRANRNCPIDQHHRNQCQ [NR2F2] | 3.32 ± 0.1 | 3.36 ± 0.24 | – | –
26 | IPIHGKGNFPTMEVKPKDIIHVVK [TENT5D] | 2.86 ± 0.24 | 2.93 ± 0.2 | – | –
27 | SNKSLVEALGLEAEGAVPETQTLT [RHOBTB1] | 5.09 ± 0.26 | 5.16 ± 0.36 | – | –
28 | FGHRFIILDTDEYVLKYMESNAAQ [EFHC1] | 2.25 ± 0.45 | 2.05 ± 0.31 | – | –
29 | KDEWHKVFDLPESLGGIRACTLTV [KLHL13] | 2.89 ± 0.63 | 2.89 ± 0.83 | – | –
30 | EPGPAAYGLKPLTPNSKYVKLNVG [KCTD13] | 3.66 ± 0.11 | 3.62 ± 0.31 | – | –
31 | SADMDESDEDDEEERRRRVFDVPI [FBXO3] | 5.32 ± 0.18 | 5.35 ± 0.11 | – | –
32 | MSDKYHDSDEATAARLLFNMAGVT [DCTD] | 3.53 ± 0.25 | 3.54 ± 0.36 | – | –
33 | LSKSRENPEEDEDQRNPAKESLET [SOAT1] | 5.47 ± 0.27 | 5.66 ± 0.34 | – | –
34 | LTRFLSRVIKCDPDCLRACQEQIE [CCND1] | 2.34 ± 0.16 | 2.56 ± 0.07 | – | –
35 | VENPSTASHSLSPSEHVQGKSPVN [ZNF649] | 5.26 ± 0.17 | 5.21 ± 0.29 | – | –
36 | HEEVVEKVKKSGSRVMFLLVDKET [PDZK1] | 3.97 ± 0.17 | 4.25 ± 0.23 | – | –
37 | RLALRQRLKCRSFKWYLENVYPEM [GALNT9] | 1.95 ± 0.22 | 2.35 ± 0.18 | – | –
38 | FSKVKTSLGLDHCHSFISGTAPLN [ACSBG2] | 2.52 ± 0.3 | 2.44 ± 0.29 | – | –
39 | PAWGHCFYRLYQDLETHRLPCTSR [SCNN1D] | 2.32 ± 0.12 | 2.62 ± 0.32 | – | –
40 | LEERLQLQFEAEMARLQEEHGDQL [MTUS2] | 5.4 ± 0.32 | 5.13 ± 0.17 | – | –
41 | YSQDPVYANGGLNYSYRGYGALSS [NOL4L] | 2.4 ± 0.23 | 2.71 ± 0.2 | – | –
42 | VVPARLKRASAPTFDNDYSLSELL [RIPK4] | 2.69 ± 0.17 | 2.8 ± 0.42 | – | –
43 | RNLARSQSVKMKDKLKIDLLPDGR [TAF7L] | 4.09 ± 0.28 | 4.25 ± 0.2 | – | –
44 | RYQQSKAAALKCQLCEKAPKEATV [TRIM9] | 3.85 ± 0.28 | 4.01 ± 0.14 | – | –

Row | Sequence | protein stability index [1] | protein stability index [2] | protein stability index (treatment: DMSO, c terminus: native) | protein stability index (treatment: MLN4924 1 uM, 8 h, c terminus: native)
45 | LPDVSLGRYAYVRGGGDPWTNGSG [MCOLN1] | 2.51 ± 0.43 | 2.87 ± 0.22 | – | –
46 | IASSDSEVEIVGVQEHARCVHPRG [C18orf25] | 4.49 ± 0.37 | 4.6 ± 0.1 | – | –
47 | GKDCFLELAPDFVGDILWEHLEIL [ETS1] | 2.42 ± 0.54 | 2.05 ± 0.39 | – | –
48 | VLASFILDDGEIDEIRWKYHSDTT [IQUB] | 2.5 ± 0.23 | 2.18 ± 0.3 | – | –
49 | SFEAPLTPLIQQRARDSPEPGAGL [PSD2] | 4.66 ± 0.22 | 4.68 ± 0.2 | – | –
50 | KPISTKSQFLKHQQTHNIEKAHEC [ZNF649] | 4.48 ± 0.27 | 4.41 ± 0.16 | – | –
51 | GAQMEKEWARALETRDWGGAQFEG [ZSWIM9] | 4.11 ± 0.26 | 4.22 ± 0.1 | – | –
52 | TEVLRNMGFAAKAMKSVHENMDLN [CHMP4C] | 3.3 ± 0.34 | 3.46 ± 0.16 | – | –
53 | AGAFGYFQQDTKGLVDFRDVALAL [LPCAT4] | 1.98 ± 0.18 | 2.12 ± 0.18 | – | –
54 | TLMGKLKLKNTVTIQQEKLLAEKE [SASS6] | 3.406 ± 0.012 | 3.39 ± 0.58 | – | –
55 | RFNLILADTNSDRLFTVNDVKVGG [DCAF4] | 2.44 ± 0.15 | 2.31 ± 0.4 | – | –
56 | NHEIMPGGSVNITCVAVGSPMPYV [PTPRD] | 2.15 ± 0.8 | 2.28 ± 0.16 | – | –
57 | NIMTQNVERILARGENLEHLRNKT [VAMP8] | 3.46 ± 0.29 | 3.93 ± 0.068 | – | –
58 | PVTRNERHSYQVYRQPIPVQELVL [NET1] | 2.79 ± 0.23 | 2.88 ± 0.23 | – | –
59 | RRVHLTEDQWGKGTLTPRMTTDFD [TRIM9] | 3.92 ± 0.13 | 4 ± 0.18 | – | –
60 | AFMLFRKRLGSMILAFRPRPNYF [GDAP1] | – | – | 2.5 ± 0.53 | 2.12 ± 0.47
61 | QSQLSMKAGLENSLAETECRYATQ [KRT15] | 4.38 ± 0.23 | 4.46 ± 0.17 | – | –
62 | YNIKLKWTNQQKLYSRTGDIVEFV [CFHR2] | – | 2.46 ± 0.41 | – | –
63 | FHNAVSAYFAGNQKQLEQTLQQFN [ARFIP2] | 2.45 ± 0.23 | 2.34 ± 0.42 | – | –
64 | EDEDDDSADMDESDEDDEEERRRR [FBXO3] | 5.65 ± 0.27 | 5.69 ± 0.12 | – | –
65 | NLVAGCLQLNARSFMMGQGGEAAH [NEUROD6] | 2.34 ± 0.22 | 2.02 ± 0.11 | – | –

Reference: the supplement of paper PMC10567573
